Here are results for one molecule from patent US20170087188A1, “WNT INDUCED MOTILITY AND ENHANCED ENGRAFTMENT OF CELLS” (OTTAWA HOSPITAL RESEARCH INSTITUTE, priority 2014, published 2017).

Values joined by “and” are separate entries in the source; they are usually repeats but may differ in a detail not shown here. Equal values may be shown once. “Also recorded” adds a separate entry of the source.

Assay [1] deals with mdx mice. In words: Transplantation of Wnt7a-treated human primary myoblasts into mdx mice. It counts as in vivo, mouse. On the procedure: The effectiveness of Wnt7a on human myoblasts, in vivo, was tested using the same experimental paradigm that we previously used for mouse myoblasts (FIG. 7C). 100,000 human myoblasts were treated ex vivo with Wnt7a for 3 h, and transplanted into immunosuppressed mdx mice. […] (FIG. 7D). […] Moreover, the mean maximal distance between dystrophin-expressing myofiber clusters increased from 1.8 mm under the Veh. condition to 3.0 mm for Wnt7a treatment (FIG. 7F).
(§1) Transplantation of zsGreen-expressing satellite cells or myoblasts into mdx mice was performed as previously described (Bentzinger et al., 2013c). Before transplantation the cells were treated for 3 h with Wnt7a, Wnt5a, or Wnt3a (R&D Systems) at a concentration of 50 ng/mL for freshly isolated satellite cells or with 100 ng/mL for cultured cells. Myoblasts expressing tdTomato were transplanted into uninjured muscles of C57BL/6 mice that were implanted with an osmotic pump (Alzet) delivering FK506 (Sigma) at 2.5 mg/kg/day 3 days prior to the transplantations. In some experiments, the injection site was marked with blue fluorescent microspheres (2 μm, Life Technologies) that were added at a concentration of 1:100 (vol/vol) to the cell suspension. 10 μl of the cell-microsphere suspension was injected into the TA of each mouse using a Hamilton syringe.

Assay [2] has as its system Rac1 association with Dvl2. Kind of assay: Co-IP of Rac1 with Dvl2 in primary myoblasts. It counts as cell-based, mouse. The following applies: Wnt7a stimulated (infected) primary myoblasts vs EV. The text has this:
(§2) Wnt7a signaling in satellite cells involves Rac1. Polarized peripheral Fzd7-tdTomato colocalized with GFP-Rac1 in C2C12 cells (FIG. 3A). It was hypothesized that the small GTPase Rac1 might also be involved in Wnt7a mediated cell polarization and migration. […] Various forms of Wnt signaling require Disheveled (Dvl) proteins.
(§3) For co-immunoprecipitation (CoIP) experiments and the Rac1 activation assay, satellite cell-derived primary myoblasts were infected with retroviruses generated from empty pHAN or from pHAN-Wnt7a-HA (Kuroda et al., 2013). Dvl2 knockdown was performed with an ON-TARGETplus siRNA SMARTpool (L-040921-01, Thermo Fisher Scientific) (Wu et al., 2008) using Lipofectamine RNAiMAX (Life Technologies) according to the manufacturer's instructions. As a control for the knockdown, a non-silencing siRNA SMARTpool was used (D-001810-10, Thermo Fisher Scientific). Cell extracts were obtained through RIPA buffer lysis in the presence of a protease inhibitor cocktail (Nacalai). For CoIP of Rac1 with Dvl2, rabbit anti-Dvl2 antibody was coupled to Protein A Dynabeads (Life Technologies). Denaturing SDS-PAGE was performed using standard techniques. Rac1 activation assay was performed according to the manufacturer's instructions (Pierce).

Assay [3] concerns mdx mice. In words: Transplantation of Wnt-treated mouse primary myoblasts into mdx mice. It counts as in vivo. To be noted: 100,000 mouse primary myoblasts. On the procedure:
In a clinical setting, freshly isolated satellite cells are often not readily available. Therefore, the effect of 3 h Wnt7a loading on cultured primary mouse myoblasts that were subsequently transplanted into injured muscles of immunosuppressed mdx mice (FIG. S5 A) was examined. After transplantation of 100,000 cells, the number of dystrophin-expressing myofibers was increased by 72% in muscles that were injected with Wnt7a treated myoblasts (FIG. 13B). […] In addition, the mean maximal cluster distance (dispersion) increased from 1.5 mm for Veh., to 2.0 mm for Wnt7a (FIG. 13D).
as §1
Muscles frozen in liquid nitrogen were cut into 12 μm cross-sections. Cross-sections and cells were either fixed with ethanol (100%) or 2% PFA for 5 min, permeabilized with 0.1% Triton/0.1 M glycine/PBS for 10 min, blocked with 5% horse serum in PBS for several hours, and incubated with specific primary antibody in blocking buffer overnight at 4° C. Samples were subsequently washed with PBS and stained with appropriate fluorescently labeled secondary antibodies for 1 h at room temperature. After washing with PBS, samples were mounted with Permafluor (Fisher). Antibodies were as follows: chicken anti-GFP (Abcam, ab13970), mouse anti-Pax7 (DSHB), mouse anti-Dystrophin (7A10, DSHB), mouse anti-Rac1 (05-389, Millipore), mouse anti-Tubulin (Sigma, T9026), rabbit anti-Dvl2 (3224, Cell Signaling), rabbit anti-zsGreen (Clontech, 632474), rabbit anti-Laminin (Sigma, L9393), rabbit anti-HA (Millipore, 07-221).

Another assay deals with satellite cells. In words: Live imaging of satellite cells on single cultured myofibers. The following applies: Wnt7a 1.5 μg/mL; compared to Veh. Type of assay: cell-based, mouse. On the procedure:
The effect of Wnt7a on satellite cell migration was measured using a time lapse imaging technique previously employed to monitor satellite cells on single muscle myofibers (Siegel et al., 2009). Wnt7a increased the mean velocity of satellite cells by 31% when compared to Veh. (FIG. 2F). […] (FIG. 2G).
Single cell imaging of cells transfected with Fzd7-YFP or YFP was performed on an LSM710 confocal microscope under 5% CO2 at 37° C. in phenol-red free DMEM (Life technologies) containing 10% FBS. Imaging of satellite cells on fibers was performed as described (Siegel et al., 2009). For live imaging of satellite cells on myofibers, Wnt7a was used at a concentration of 1.5 μg/mL. Satellite cell time-lapse microscopy was performed using a Leica DMI 5100 inverted microscope and MetaMorph 7.6.1 Software (Molecular Devices) with time points being acquired every 7 minutes in a stagetop incubator (LiveCell Imaging). ImageJ analyzed the time-lapse data to calculate the velocity, defined as distance (um)/time (hr), between time points and the average velocity of each cell was calculated. The maximum velocity is defined as the highest velocity obtained by a single cell during the tracking period.

A further assay concerns human primary myoblasts. Kind of assay: Scratch migration assay, human primary myoblasts. Type of assay: cell-based. Here is the method:
The translational relevance of Wnt7a treatment was examined in human primary myoblasts.
Following plasmid transfection or application of Wnts (R&D Systems), the cells were treated with Mitomycin-C for 2 h (50 μg/mL). Subsequently, the monolayer of cells was scraped in a straight line. The plates were then extensively washed with culture medium and incubated for 24 h before analysis. Analysis was performed using DAPI staining after matching the reference points and enumeration of DAPI-stained nuclei in the scar was performed. Unless otherwise indicated, Wnt7a and Wnt3a were used at a concentration of 100 ng/mL in scratch assays. Monodansylcadaverine (MDC, 30432, Sigma) was used in scratch assays at a concentration of 50 μm.

The subject of a further assay is Rac1. In words: Rac1 activation assay in mouse primary myoblasts. Type of assay: cell-based. To be noted: Wnt7a overexpression (Wnt7a-HA retrovirus) vs empty virus.
Excerpt: as §2, §3

B1: Wnt7a: non-canonical Wnt polypeptide (R&D Systems) used to treat or load myogenic cells (protein, UniProt O00755 32-349, looked up)
Protein Wnt-7a: LGASIICNKIPGLAPRQRAICQSRPDAIIVIGEGSQMGLDECQFQFRNGRWNCSALGERTVFGKELKVGSREAAFTYAIIAAGVAHAITAACTQGNLSDCGCDKEKQGQYHRDEGWKWGGCSADIRYGIGFAKVFVDAREIKQNARTLMNLHNNEAGRKILEENMKLECKCHGVSGSCTTKTCWTTLPQFRELGYVLKDKYNEAVHVEPVRASRNKRPTFLKIKKPLSYRKPMDTDLVYIEKSPNYCEEDPVTGSVGTQGRACNKTAPQASGCDLMCCGRGYNTHQYARVWQCNCKFHWCCYVKCNTCSERTEMYTCK
Take B1: in the assay on mdx mice [1] (100,000 human myoblasts treated ex vivo 3 h, immunosuppressed mdx mice, compared to Veh.), the “increase in the number of dystrophin-expressing myofibers” value is 226% and > 200%. Moreover, in the assay on mdx mice [1] (human myoblasts treated ex vivo 3 h, mdx mice), the “mean maximal distance between dystrophin-expressing myofiber clusters” value stood at 3.0 mm. Further, the “increase in fiber feret” value in the assay on mdx mice [1] (myofibers fused to Wnt7a-treated human myoblasts, mdx mice) is given as 29%. Further, the “Rac1 association with Dvl2” value in assay [2] is “increased Rac1 association with Dvl2”. Besides, in the assay on mdx mice [3] (3 h loading (100 ng/mL), immunosuppressed mdx mice), the “increase in number of dystrophin-expressing myofibers” value stood at 72%. Besides, in the assay with mdx mice [3] (3 h loading, mdx mice), the “hypertrophy of dystrophin-expressing myofibers” value turned out to be 87% and the “mean maximal cluster distance (dispersion)” value amounted to 2.0 mm. Further, in the assay with satellite cells, the higher directional persistence is 36%, the “increase in mean velocity of satellite cells” value is on record as 31% and the mean maximal velocity entry is listed as “not significantly different; also recorded: not substantially different”. The human myoblast migration result in the assay on human primary myoblasts is on record as “significantly increases cell migration; also recorded: significantly increased human myoblast migration”. For the same molecule, the “activation of Rac1” value in the assay on Rac1 is listed as “significantly increased the activation of Rac1”.
